Assay results as given in publication PMC9482650, “Quantitative fragmentomics allow affinity mapping of interactomes” (Nature Communications, 2022).

What was measured:
Assay in all cases: holdup assay
Design in all cases: key: below the threshold = too weak to quantify, mostly under pKd 3.1 to 4
NHERF3_3, Q5T2W1 = biological target: T1, NHERF3_3, Q5T2W1
T1 sequence (Q5T2W1 238-333, limits assumed, looked up): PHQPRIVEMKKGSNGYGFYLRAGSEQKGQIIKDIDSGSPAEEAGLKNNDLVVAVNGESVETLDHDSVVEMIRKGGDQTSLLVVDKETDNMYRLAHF

Inadl_4, Q8NI35 = biological target: Inadl_4, Q8NI35
GORASP2, Q9H8Y8 = biological target: GORASP2, Q9H8Y8
APBA2_2, Q99767 = biological target: T2, APBA2_2, Q99767
T2 sequence (Q99767 654-744, limits assumed, looked up): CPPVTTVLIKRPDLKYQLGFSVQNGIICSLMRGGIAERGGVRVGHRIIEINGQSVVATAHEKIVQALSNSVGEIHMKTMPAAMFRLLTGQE

Inadl_9, Q8NI35 = biological target: Inadl_9, Q8NI35
HTRA3, P83110 = biological target: T3, HTRA3, P83110
T3 sequence (P83110 354-453, limits assumed, looked up): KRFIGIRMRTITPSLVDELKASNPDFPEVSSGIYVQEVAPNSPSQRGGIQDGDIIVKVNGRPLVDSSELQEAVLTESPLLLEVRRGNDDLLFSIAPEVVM

Inadl_1, Q8NI35 = biological target: Inadl_1, Q8NI35
MAST1, Q9Y2H9 = biological target: MAST1, Q9Y2H9
MAGI3_2, Q5TCQ9 = biological target: MAGI3_2, Q5TCQ9
DFNB31_3, Q9P202 = biological target: T4, DFNB31_3, Q9P202
T4 sequence (Q9P202 811-907, limits assumed, looked up): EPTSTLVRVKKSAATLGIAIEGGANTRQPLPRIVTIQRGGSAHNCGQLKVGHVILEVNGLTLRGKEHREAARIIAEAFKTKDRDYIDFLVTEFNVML

SNX27, Q96L92 = biological target: SNX27, Q96L92
TJP1_2, Q07157 = biological target: TJP1_2, Q07157
IL16_3, Q14005 = biological target: IL16_3, Q14005
GRID2IP_2, A4D2P6 = biological target: GRID2IP_2, A4D2P6
DFNB31_2, Q9P202 = biological target: T5, DFNB31_2, Q9P202
T5 sequence (Q9P202 274-371, limits assumed, looked up): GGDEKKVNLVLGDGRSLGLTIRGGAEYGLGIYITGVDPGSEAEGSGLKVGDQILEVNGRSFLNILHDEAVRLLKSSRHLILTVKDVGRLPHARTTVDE

MAGI1_1, Q96QZ7 = biological target: MAGI1_1, Q96QZ7
HTRA1, Q92743 = biological target: HTRA1, Q92743
GRIP2_4, Q9C0E4 = biological target: GRIP2_4, Q9C0E4
LNX2_2, Q8N448 = biological target: T6, LNX2_2, Q8N448
T6 sequence (Q8N448 334-432, limits assumed, looked up): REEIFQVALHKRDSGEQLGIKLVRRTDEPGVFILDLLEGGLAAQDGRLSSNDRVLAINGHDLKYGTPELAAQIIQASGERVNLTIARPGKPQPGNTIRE

DLG1_3, Q12959 = biological target: DLG1_3, Q12959
GOPC, Q9HD26 = biological target: GOPC, Q9HD26
ARHGEF11, O15085 = biological target: T7, ARHGEF11, O15085
T7 sequence (O15085 42-136, limits assumed, looked up): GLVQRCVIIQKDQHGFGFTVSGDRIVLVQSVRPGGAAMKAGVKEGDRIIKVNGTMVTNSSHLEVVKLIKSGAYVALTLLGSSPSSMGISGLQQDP

LNX2_3, Q8N448 = biological target: T8, LNX2_3, Q8N448
T8 sequence (Q8N448 463-564, limits assumed, looked up): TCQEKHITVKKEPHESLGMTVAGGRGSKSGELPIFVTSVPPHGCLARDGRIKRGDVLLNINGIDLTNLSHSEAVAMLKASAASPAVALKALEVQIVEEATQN

HTRA2, O43464 = biological target: HTRA2, O43464
Inadl_5, Q8NI35 = biological target: Inadl_5, Q8NI35
PICK1, Q9NRD5 = biological target: PICK1, Q9NRD5
TJP1_3, Q07157 = biological target: TJP1_3, Q07157
GRIP2_5, Q9C0E4 = biological target: GRIP2_5, Q9C0E4
MPDZ_10, O75970 = biological target: T9, MPDZ_10, O75970
T9 sequence (O75970 1624-1722, limits assumed, looked up): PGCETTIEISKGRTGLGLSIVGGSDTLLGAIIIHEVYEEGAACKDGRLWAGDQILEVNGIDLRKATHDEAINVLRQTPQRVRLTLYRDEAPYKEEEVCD

[1] = plain residues with an end cap or a label only (N-terminal biotin on a linker: ttds)
[2] = plain residues with an end cap or a label only (N-terminal biotin on a linker: ahx)

Measured: pKd

Chain of PICK1, Q9NRD5 (Q9NRD5 17-115): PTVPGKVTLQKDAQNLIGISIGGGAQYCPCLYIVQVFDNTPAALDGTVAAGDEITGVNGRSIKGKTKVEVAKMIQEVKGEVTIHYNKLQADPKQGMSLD
Chain of GRIP2_5, Q9C0E4 (Q9C0E4 544-642): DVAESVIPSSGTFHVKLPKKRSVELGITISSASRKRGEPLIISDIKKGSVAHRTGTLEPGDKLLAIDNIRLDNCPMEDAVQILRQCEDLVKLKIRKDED
Chain of IL16_3, Q14005 (Q14005 1107-1207): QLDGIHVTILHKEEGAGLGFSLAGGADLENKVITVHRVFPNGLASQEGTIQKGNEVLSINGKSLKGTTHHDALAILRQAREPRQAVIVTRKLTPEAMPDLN
Chain of MAST1, Q9Y2H9 (Q9Y2H9 962-1065): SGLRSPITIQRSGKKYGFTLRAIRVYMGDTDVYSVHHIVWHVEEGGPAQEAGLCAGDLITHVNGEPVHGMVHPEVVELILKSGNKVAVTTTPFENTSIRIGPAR
Chain of Inadl_9, Q8NI35 (Q8NI35 1530-1615): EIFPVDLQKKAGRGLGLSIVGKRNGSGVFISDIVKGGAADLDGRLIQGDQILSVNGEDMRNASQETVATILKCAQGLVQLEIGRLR
Chain of MAGI1_1, Q96QZ7 (Q96QZ7 1-106): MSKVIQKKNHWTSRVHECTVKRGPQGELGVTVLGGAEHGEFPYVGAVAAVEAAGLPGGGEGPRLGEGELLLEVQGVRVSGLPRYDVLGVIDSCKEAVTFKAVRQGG
Chain of HTRA1, Q92743 (Q92743 360-477): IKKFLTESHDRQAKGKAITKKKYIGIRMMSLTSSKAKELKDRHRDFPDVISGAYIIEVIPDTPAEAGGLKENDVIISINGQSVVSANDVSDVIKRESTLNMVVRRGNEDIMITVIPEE
Chain of MAGI3_2, Q5TCQ9 (Q5TCQ9 398-503): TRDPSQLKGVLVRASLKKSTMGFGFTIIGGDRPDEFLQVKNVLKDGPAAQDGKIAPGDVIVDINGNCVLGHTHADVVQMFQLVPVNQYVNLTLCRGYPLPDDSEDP
Chain of DLG1_3, Q12959 (Q12959 457-571): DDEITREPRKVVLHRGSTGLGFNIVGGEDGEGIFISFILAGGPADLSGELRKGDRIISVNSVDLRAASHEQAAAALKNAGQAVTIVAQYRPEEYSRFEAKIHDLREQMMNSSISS
Chain of HTRA2, O43464 (O43464 355-458): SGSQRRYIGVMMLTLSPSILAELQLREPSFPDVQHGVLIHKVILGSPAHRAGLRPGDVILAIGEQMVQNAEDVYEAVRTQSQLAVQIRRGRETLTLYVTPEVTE
Chain of TJP1_3, Q07157 (Q07157 416-512): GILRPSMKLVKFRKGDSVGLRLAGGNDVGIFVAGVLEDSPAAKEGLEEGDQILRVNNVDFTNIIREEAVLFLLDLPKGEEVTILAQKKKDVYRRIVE
Chain of GRID2IP_2, A4D2P6 (A4D2P6 272-370): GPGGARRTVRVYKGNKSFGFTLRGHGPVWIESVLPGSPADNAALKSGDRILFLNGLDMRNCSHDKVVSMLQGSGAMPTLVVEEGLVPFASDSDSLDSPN
Chain of Inadl_5, Q8NI35 (Q8NI35 673-780): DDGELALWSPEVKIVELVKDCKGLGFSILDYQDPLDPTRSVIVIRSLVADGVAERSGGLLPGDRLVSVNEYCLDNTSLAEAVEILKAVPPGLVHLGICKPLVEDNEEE
Chain of GRIP2_4, Q9C0E4 (Q9C0E4 446-548): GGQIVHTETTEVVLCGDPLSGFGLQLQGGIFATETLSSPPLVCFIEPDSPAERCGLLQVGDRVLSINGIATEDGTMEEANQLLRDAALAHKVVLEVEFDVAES
Chain of Inadl_4, Q8NI35 (Q8NI35 547-651): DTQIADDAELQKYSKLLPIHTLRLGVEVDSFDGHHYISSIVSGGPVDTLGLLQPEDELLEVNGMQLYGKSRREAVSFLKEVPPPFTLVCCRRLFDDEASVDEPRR
Chain of TJP1_2, Q07157 (Q07157 181-274): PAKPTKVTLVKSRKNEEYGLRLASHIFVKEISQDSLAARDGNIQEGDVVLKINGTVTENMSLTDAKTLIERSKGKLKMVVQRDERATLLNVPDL
Chain of Inadl_1, Q8NI35 (Q8NI35 113-229): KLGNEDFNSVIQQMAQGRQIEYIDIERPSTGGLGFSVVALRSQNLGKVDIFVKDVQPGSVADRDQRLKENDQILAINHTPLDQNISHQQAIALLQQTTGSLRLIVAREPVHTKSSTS

QRQARSETLV [HPV59-E6, Q81964]
4.34: GORASP2, Q9H8Y8; [1]
4.14: HTRA1, Q92743; [1]
3.64: GRID2IP_2, A4D2P6; [1]
4.62: MAST1, Q9Y2H9; [1]
3.92: GOPC, Q9HD26; [1]
3.69: HTRA3, P83110; [1]
below the threshold: NHERF3_3, Q5T2W1; [1] | Inadl_4, Q8NI35; [1] | APBA2_2, Q99767; [1] | Inadl_9, Q8NI35; [1] | Inadl_1, Q8NI35; [1] | DFNB31_3, Q9P202; [1] | TJP1_2, Q07157; [1] | IL16_3, Q14005; [1] | DFNB31_2, Q9P202; [1] | MAGI1_1, Q96QZ7; [1] | GRIP2_4, Q9C0E4; [1] | ARHGEF11, O15085; [1] | LNX2_3, Q8N448; [1] | HTRA2, O43464; [1] | TJP1_3, Q07157; [1] | GRIP2_5, Q9C0E4; [1] | MPDZ_10, O75970; [1]
5.04: LNX2_2, Q8N448; [1]
3.85: PICK1, Q9NRD5; [1]
4.64: SNX27, Q96L92; [1]
3.82: DLG1_3, Q12959; [1]
6.07: MAGI3_2, Q5TCQ9; [1]
3.9: Inadl_5, Q8NI35; [1]

SDSSGQEYSL [KCTD3, Q9Y597]
3.56: MPDZ_10, O75970; [2]
3.98: HTRA1, Q92743; [2] | ARHGEF11, O15085; [2]
below the threshold: NHERF3_3, Q5T2W1; [2] | Inadl_4, Q8NI35; [2] | GORASP2, Q9H8Y8; [2] | APBA2_2, Q99767; [2] | Inadl_9, Q8NI35; [2] | HTRA3, P83110; [2] | Inadl_1, Q8NI35; [2] | MAST1, Q9Y2H9; [2] | MAGI3_2, Q5TCQ9; [2] | DFNB31_3, Q9P202; [2] | SNX27, Q96L92; [2] | TJP1_2, Q07157; [2] | IL16_3, Q14005; [2] | GRID2IP_2, A4D2P6; [2] | DFNB31_2, Q9P202; [2] | MAGI1_1, Q96QZ7; [2] | GRIP2_4, Q9C0E4; [2] | LNX2_2, Q8N448; [2] | DLG1_3, Q12959; [2] | GOPC, Q9HD26; [2] | LNX2_3, Q8N448; [2] | HTRA2, O43464; [2] | Inadl_5, Q8NI35; [2] | PICK1, Q9NRD5; [2] | TJP1_3, Q07157; [2] | GRIP2_5, Q9C0E4; [2]

ESLLLGPSNF [SHROOM4, Q9ULL8]
below the threshold: NHERF3_3, Q5T2W1; [2] | Inadl_4, Q8NI35; [2] | GORASP2, Q9H8Y8; [2] | APBA2_2, Q99767; [2] | Inadl_9, Q8NI35; [2] | HTRA3, P83110; [2] | Inadl_1, Q8NI35; [2] | MAST1, Q9Y2H9; [2] | MAGI3_2, Q5TCQ9; [2] | DFNB31_3, Q9P202; [2] | SNX27, Q96L92; [2] | TJP1_2, Q07157; [2] | IL16_3, Q14005; [2] | GRID2IP_2, A4D2P6; [2] | DFNB31_2, Q9P202; [2] | MAGI1_1, Q96QZ7; [2] | HTRA1, Q92743; [2] | GRIP2_4, Q9C0E4; [2] | LNX2_2, Q8N448; [2] | DLG1_3, Q12959; [2] | GOPC, Q9HD26; [2] | ARHGEF11, O15085; [2] | LNX2_3, Q8N448; [2] | HTRA2, O43464; [2] | Inadl_5, Q8NI35; [2] | PICK1, Q9NRD5; [2] | TJP1_3, Q07157; [2] | GRIP2_5, Q9C0E4; [2] | MPDZ_10, O75970; [2]
